The experiment addresses T1, staphylococcal enterotoxin B (SEB) (Staphylococcus aureus, UniProt P01552 28-266).
T1 sequence: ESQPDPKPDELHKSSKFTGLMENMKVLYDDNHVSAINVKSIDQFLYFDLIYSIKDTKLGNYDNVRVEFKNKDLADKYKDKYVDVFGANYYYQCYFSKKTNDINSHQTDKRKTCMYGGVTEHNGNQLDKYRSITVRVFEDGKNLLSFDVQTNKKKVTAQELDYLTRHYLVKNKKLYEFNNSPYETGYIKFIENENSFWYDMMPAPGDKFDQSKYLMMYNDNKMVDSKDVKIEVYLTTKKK
The experiment is described as follows: SPR. A general note: In SPR one partner is held on a chip, and binding of the other changes the refractive index at the surface.

One molecule from article PMC7117543 (Biochemical and Biophysical Research Communications, 2008) can be followed below.

B1: phage clone 9 (M13 phage displaying QHPQINQTLYRM) (peptide)
peptide: QHPQINQTLYRM
With B1, the binding result was “binds”.
